Experimental data taken from paper PMC7508628, “Targeting the Respiratory Syncytial Virus N^0-P Complex with Constrained α-Helical Peptides in Cells and Mice” (Antimicrobial Agents and Chemotherapy, 2020).
Where a SMILES comes first, the peptide text is derived from it. Bridges are numbered along the chain shown (N, C = ends). [ ]: non-standard residue; d: D form. R8 = C=CCCCCCC[C@@](C)(N)C(=O)O; R5 = C=CCCC[C@@](C)(N)C(=O)O; S5 = C=CCCC[C@](C)(N)C(=O)O

Legend:
[1] = circular dichroism; details: 10 mM phosphate; pH 7.5; 25 °C; 50 uM
[2] = Circular dichroism spectroscopy, α-helical content; format: physicochemical; details: CD, 10 mM phosphate buffer pH 7.5, 50 μM peptide, 25°C, calculated from ellipticity at 222 nm; average of three measurements
Description: The α-helical stabilization appeared to be higher for the i, i + 7 staples overall.
The circular dichroism spectra were acquired on a Chirascan spectropolarimeter. The samples were prepared in 10 mM phosphate buffer, pH 7.5, at a peptide concentration of 50 μM. Data were recorded at 25°C by step scan from 180 nm to 260 nm in a 0.5-mm-pathlength quartz cell using 0.2-nm-wavelength increments, a 1-nm bandwidth, and a response time of 1 s. Each spectrum was an average of three measurements and was subtracted from the buffer baseline. The data were converted to per residue molar ellipticity units (θ; in degrees · square centimeters · decimoles^−1 · number of residues^−1) and smoothed using Igor Pro software. Percent helicity was calculated as follows: (100 × CD222)/(C × N × {40,000 × [1 − (2.5/N)]}), where CD222 is the molar ellipticity (θ) at 222 nm (in millidegrees), N is the number of amino acids in the peptide, and C is the peptide molar concentration (in moles per liter).

[3] = system: rHRSV-mCherry; details: read-out: EC50 (half-maximal response inhibitory concentration), inhibition of RSV infection; HEp-2 cells, MOI 0.2, peptides added after 2 h infection, mCherry fluorescence at 48 h postinfection; duplicates

| SMILES | helicity [1] | % helicity [2] | EC50 [3] |
| --- | --- | --- | --- |
| CC[C@H](C)[C@@H]1NC(=O)[C@](C)(NC(=O)[C@H](CCC(=O)O)NC(=O)[C@H](CC(C)C)NC(=O)[C@H](Cc2ccccc2)NC(=O)[C@H](CCCCN)NC(=O)[C@@H](NC(=O)[C@H](C)NC(=O)[C@H](CCCCN)NC(=O)[C@H](CC(N)=O)NC(=O)[C@H](CC(N)=O)NC(=O)[C@H](C)NC(=O)[C@H](CC(=O)O)NC(=O)[C@H](CCC(=O)O)NC(C)=O)[C@@H](C)O)CCCCCCC=CCCC[C@@](C)(C(N)=O)NC(=O)[C@H](C)NC(=O)[C@H](Cc2ccccc2)NC(=O)[C@H](CCCCN)NC(=O)CNC(=O)[C@H](CCCCN)NC1=O [3e] (Ac-EDANNKATKFLE[R8]IKGKFA[S5]-NH2; staple 13-20) | 19.9% | 19.9% |  |
| CC[C@H](C)[C@@H]1NC(=O)[C@](C)(NC(=O)[C@H](CCC(=O)O)NC(=O)[C@H](CC(C)C)NC(=O)[C@H](Cc2ccccc2)NC(=O)[C@H](CCCCN)NC(=O)[C@@H](NC(=O)[C@H](C)NC(=O)[C@H](CCCCN)NC(=O)[C@H](CC(N)=O)NC(=O)[C@H](CC(N)=O)NC(=O)[C@H](C)NC(=O)[C@H](CC(=O)O)NC(=O)[C@H](CCC(=O)O)NC(C)=O)[C@@H](C)O)CCCC=CCCC[C@@](C)(C(=O)N[C@@H](CCCCN)C(=O)N[C@@H](Cc2ccccc2)C(=O)N[C@@H](C)C(=O)N[C@@H](CO)C(N)=O)NC(=O)[C@H](CCCCN)NC1=O (Ac-EDANNKATKFLE[R5]IK[S5]KFAS-NH2; staple 13-16) | 30.7% |  |  |
| CC[C@H](C)[C@H](NC(=O)[C@H](CO)NC(=O)[C@H](CCC(=O)O)NC(=O)[C@H](CC(C)C)NC(=O)[C@H](Cc1ccccc1)NC(=O)[C@H](CCCCN)NC(=O)[C@@H](NC(=O)[C@H](C)NC(=O)[C@H](CCCCN)NC(=O)[C@H](CC(N)=O)NC(=O)[C@H](CC(N)=O)NC(=O)[C@H](C)NC(=O)[C@H](CC(=O)O)NC(=O)[C@H](CCC(=O)O)NC(C)=O)[C@@H](C)O)C(=O)N[C@@H](CCCCN)C(=O)N[C@@]1(C)CCCC=CCCC[C@@](C)(C(N)=O)NC(=O)[C@H](C)NC(=O)[C@H](Cc2ccccc2)NC(=O)[C@H](CCCCN)NC1=O (Ac-EDANNKATKFLESIK[S5]KFA[S5]-NH2; staple 16-20) | 24.1% |  |  |
| CC[C@H](C)[C@@H]1NC(=O)[C@H](CO)NC(=O)[C@H](CCC(=O)O)NC(=O)[C@H](CC(C)C)NC(=O)[C@H](Cc2ccccc2)NC(=O)[C@](C)(NC(=O)[C@@H](NC(=O)[C@H](C)NC(=O)[C@H](CCCCN)NC(=O)[C@H](CC(N)=O)NC(=O)[C@H](CC(N)=O)NC(=O)[C@H](C)NC(=O)[C@H](CC(=O)O)NC(=O)[C@H](CCC(=O)O)NC(C)=O)[C@@H](C)O)CCCCCCC=CCCC[C@@](C)(C(=O)N[C@@H](CCCCN)C(=O)N[C@@H](Cc2ccccc2)C(=O)N[C@@H](C)C(=O)N[C@@H](CO)C(N)=O)NC(=O)[C@H](CCCCN)NC1=O (Ac-EDANNKAT[R8]FLESIK[S5]KFAS-NH2; staple 9-16) | 96% |  |  |
| CC[C@H](C)[C@@H]1NC(=O)[C@H](CO)NC(=O)[C@](C)(NC(=O)[C@H](CC(C)C)NC(=O)[C@H](Cc2ccccc2)NC(=O)[C@H](CCCCN)NC(=O)[C@@H](NC(=O)[C@H](C)NC(=O)[C@H](CCCCN)NC(=O)[C@H](CC(N)=O)NC(=O)[C@H](CC(N)=O)NC(=O)[C@H](C)NC(=O)[C@H](CC(=O)O)NC(=O)[C@H](CCC(=O)O)NC(C)=O)[C@@H](C)O)CCCCCCC=CCCC[C@@](C)(C(=O)N[C@@H](CO)C(N)=O)NC(=O)[C@H](Cc2ccccc2)NC(=O)[C@H](CCCCN)NC(=O)CNC(=O)[C@H](CCCCN)NC1=O (Ac-EDANNKATKFL[R8]SIKGKF[S5]S-NH2; staple 12-19) | 35.3% |  |  |
| CC[C@H](C)[C@H](NC(=O)[C@H](CO)NC(=O)[C@]1(C)CCCC=CCCCCCC[C@@](C)(NC(=O)[C@H](CC(N)=O)NC(=O)[C@H](C)NC(=O)[C@H](CC(=O)O)NC(=O)[C@H](CCC(=O)O)NC(C)=O)C(=O)N[C@@H](CCCCN)C(=O)N[C@@H](C)C(=O)N[C@@H]([C@@H](C)O)C(=O)N[C@@H](CCCCN)C(=O)N[C@@H](Cc2ccccc2)C(=O)N[C@@H](CC(C)C)C(=O)N1)C(=O)N[C@@H](CCCCN)C(=O)NCC(=O)N[C@@H](CCCCN)C(=O)N[C@@H](Cc1ccccc1)C(=O)N[C@@H](C)C(=O)N[C@@H](CO)C(N)=O (Ac-EDAN[R8]KATKFL[S5]SIKGKFAS-NH2; staple 5-12) | 64.6% |  |  |
| CC[C@H](C)[C@H](NC(=O)[C@H](CO)NC(=O)[C@]1(C)CCCC=CCCCCCC[C@@](C)(NC(=O)[C@H](CC(N)=O)NC(=O)[C@H](C)NC(=O)[C@H](CC(=O)O)NC(=O)[C@H](CCC(=O)O)NC(=O)CNC(=O)[C@H](Cc2c[nH]cn2)NC(=O)[C@H](Cc2ccccc2)NC(=O)[C@H](CCC(=O)O)NC(C)=O)C(=O)N[C@@H](CCCCN)C(=O)N[C@@H](C)C(=O)N[C@@H]([C@@H](C)O)C(=O)N[C@@H](CCCCN)C(=O)N[C@@H](Cc2ccccc2)C(=O)N[C@@H](CC(C)C)C(=O)N1)C(=O)N[C@@H](CCCCN)C(=O)N[C@]1(C)CCCC=CCCC[C@@](C)(C(=O)N[C@@H](CO)C(N)=O)NC(=O)[C@H](Cc2ccccc2)NC(=O)[C@H](CCCCN)NC1=O [3a1f] (Ac-EFHGEDAN[R8]KATKFL[S5]SIK[R5]KF[S5]S-NH2; staple 9-16, 20-23) |  | 37.7% | 25.3 ± 17.9 µM |
| CC[C@H](C)[C@H](NC(=O)[C@H](CO)NC(=O)[C@]1(C)CCCC=CCCC[C@](C)(NC(=O)[C@H](C)NC(=O)[C@H](CCCCN)NC(=O)[C@H](CC(N)=O)NC(=O)[C@H](CC(N)=O)NC(=O)[C@H](C)NC(=O)[C@H](CC(=O)O)NC(=O)[C@H](CCC(=O)O)NC(=O)CNC(=O)[C@H](Cc2c[nH]cn2)NC(=O)[C@H](Cc2ccccc2)NC(=O)[C@H](CCC(=O)O)NC(C)=O)C(=O)N[C@@H](CCCCN)C(=O)N[C@@H](Cc2ccccc2)C(=O)N[C@@H](CC(C)C)C(=O)N1)C(=O)N[C@@H](CCCCN)C(=O)N[C@]1(C)CCCC=CCCC[C@@](C)(C(=O)N[C@@H](CO)C(N)=O)NC(=O)[C@H](Cc2ccccc2)NC(=O)[C@H](CCCCN)NC1=O [2b1f] (Ac-EFHGEDANNKA[S5]KFL[S5]SIK[R5]KF[S5]S-NH2; staple 12-16, 20-23) |  | 37.6% | 41 ± 0.5 µM |
| CC[C@H](C)[C@H](NC(=O)[C@]1(C)CCCC=CCCC[C@](C)(NC(=O)[C@@H](NC(=O)[C@H](C)NC(=O)[C@H](CCCCN)NC(=O)[C@H](CC(N)=O)NC(=O)[C@H](CC(N)=O)NC(=O)[C@H](C)NC(=O)[C@H](CC(=O)O)NC(=O)[C@H](CCC(=O)O)NC(C)=O)[C@@H](C)O)C(=O)N[C@@H](Cc2ccccc2)C(=O)N[C@@H](CC(C)C)C(=O)N[C@@H](CCC(=O)O)C(=O)N1)C(=O)N[C@@H](CCCCN)C(=O)NCC(=O)N[C@@H](CCCCN)C(=O)N[C@@H](Cc1ccccc1)C(=O)N[C@@H](C)C(=O)N[C@@H](CO)C(N)=O [2c] (Ac-EDANNKAT[S5]FLE[S5]IKGKFAS-NH2; staple 9-13) | 16.8% | 16.8% |  |
| CC[C@H](C)[C@@H]1NC(=O)[C@@](C)(NC(=O)[C@H](CCC(=O)O)NC(=O)[C@H](CC(C)C)NC(=O)[C@H](Cc2ccccc2)NC(=O)[C@H](CCCCN)NC(=O)[C@@H](NC(=O)[C@H](C)NC(=O)[C@H](CCCCN)NC(=O)[C@H](CC(N)=O)NC(=O)[C@H](CC(N)=O)NC(=O)[C@H](C)NC(=O)[C@H](CC(=O)O)NC(=O)[C@H](CCC(=O)O)NC(C)=O)[C@@H](C)O)CCCC=CCCC[C@@](C)(C(=O)N[C@@H](Cc2ccccc2)C(=O)N[C@@H](C)C(=O)N[C@@H](CO)C(N)=O)NC(=O)CNC(=O)[C@H](CCCCN)NC1=O (Ac-EDANNKATKFLE[S5]IKG[S5]FAS-NH2; staple 13-17) | 46.5% |  |  |
| CC[C@H](C)[C@H](NC(=O)[C@]1(C)CCCC=CCCCCCC[C@@](C)(NC(=O)[C@H](CC(N)=O)NC(=O)[C@H](CC(N)=O)NC(=O)[C@H](C)NC(=O)[C@H](CC(=O)O)NC(=O)[C@H](CCC(=O)O)NC(C)=O)C(=O)N[C@@H](C)C(=O)N[C@@H]([C@@H](C)O)C(=O)N[C@@H](CCCCN)C(=O)N[C@@H](Cc2ccccc2)C(=O)N[C@@H](CC(C)C)C(=O)N[C@@H](CCC(=O)O)C(=O)N1)C(=O)N[C@@H](CCCCN)C(=O)NCC(=O)N[C@@H](CCCCN)C(=O)N[C@@H](Cc1ccccc1)C(=O)N[C@@H](C)C(=O)N[C@@H](CO)C(N)=O (Ac-EDANN[R8]ATKFLE[S5]IKGKFAS-NH2; staple 6-13) | 36.5% |  |  |
| CC[C@H](C)[C@H](NC(=O)[C@H](CO)NC(=O)[C@H](CCC(=O)O)NC(=O)[C@H](CC(C)C)NC(=O)[C@H](Cc1ccccc1)NC(=O)[C@]1(C)CCCC=CCCC[C@](C)(NC(=O)[C@H](CC(N)=O)NC(=O)[C@H](C)NC(=O)[C@H](CC(=O)O)NC(=O)[C@H](CCC(=O)O)NC(C)=O)C(=O)N[C@@H](CCCCN)C(=O)N[C@@H](C)C(=O)N[C@@H]([C@@H](C)O)C(=O)N1)C(=O)N[C@@H](CCCCN)C(=O)NCC(=O)N[C@@H](CCCCN)C(=O)N[C@@H](Cc1ccccc1)C(=O)N[C@@H](C)C(=O)N[C@@H](CO)C(N)=O [2a] (Ac-EDAN[S5]KAT[S5]FLESIKGKFAS-NH2; staple 5-9) | 17.9% | 17.9% |  |
| CC[C@H](C)[C@H](NC(=O)[C@H](CO)NC(=O)[C@]1(C)CCCC=CCCC[C@](C)(NC(=O)[C@H](C)NC(=O)[C@H](CCCCN)NC(=O)[C@H](CC(N)=O)NC(=O)[C@H](CC(N)=O)NC(=O)[C@H](C)NC(=O)[C@H](CC(=O)O)NC(=O)[C@H](CCC(=O)O)NC(C)=O)C(=O)N[C@@H](CCCCN)C(=O)N[C@@H](Cc2ccccc2)C(=O)N[C@@H](CC(C)C)C(=O)N1)C(=O)N[C@@H](CCCCN)C(=O)NCC(=O)N[C@@H](CCCCN)C(=O)N[C@@H](Cc1ccccc1)C(=O)N[C@@H](C)C(=O)N[C@@H](CO)C(N)=O (Ac-EDANNKA[S5]KFL[S5]SIKGKFAS-NH2; staple 8-12) | 31% |  |  |
